# Measurements published in publication PMC7124660.
# Experiments:
# [1] = biological target: hemagglutinin of avian influenza virus H5N1 (avian influenza virus H5N1); assay: ELISA
# [2] = biological target: hemagglutinin of avian influenza virus H1N1 (avian influenza virus H1N1); assay: ELISA
# hemagglutinin of avian influenza virus H5N1 (avian influenza virus H5N1), sequence (Q9Q0U6 17-568): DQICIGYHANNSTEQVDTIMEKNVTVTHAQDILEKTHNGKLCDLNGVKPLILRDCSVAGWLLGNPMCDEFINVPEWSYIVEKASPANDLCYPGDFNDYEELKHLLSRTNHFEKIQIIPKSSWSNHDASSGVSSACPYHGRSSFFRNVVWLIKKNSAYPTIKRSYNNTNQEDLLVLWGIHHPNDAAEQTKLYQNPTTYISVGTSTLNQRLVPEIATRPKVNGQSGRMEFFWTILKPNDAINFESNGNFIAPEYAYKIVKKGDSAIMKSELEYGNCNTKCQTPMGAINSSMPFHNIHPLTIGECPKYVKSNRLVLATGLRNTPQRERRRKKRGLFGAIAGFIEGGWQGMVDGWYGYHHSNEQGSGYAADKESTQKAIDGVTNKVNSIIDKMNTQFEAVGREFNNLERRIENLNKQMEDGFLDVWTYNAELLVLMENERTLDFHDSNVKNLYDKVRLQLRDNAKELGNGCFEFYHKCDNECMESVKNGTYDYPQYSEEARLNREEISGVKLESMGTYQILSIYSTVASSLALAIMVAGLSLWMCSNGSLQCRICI
substance,measurement,setting,value
Desialylated ovomucin (from UniProt Q98UI9;F1NBL0) (complex),percent decrease of binding capacity against natural OVM,[1],71.5%
same,percent decrease of binding capacity against natural OVM,[2],64.2%
